Legend:
[1] = system: BVO 13A (synthetic)
[2] = system: MX1E (synthetic)
[3] = system: VOP 29A-3 (synthetic)
[4] = system: USX 3A (synthetic)
[5] = system: VOP 35A-10 (synthetic)
[6] = system: VOP 30A-4 (synthetic)
[7] = system: HP38 4A (synthetic)
[8] = system: VEGF 1B (synthetic)
[9] = system: VOP 28A-2 (synthetic)
[10] = system: VOP 32A-6 (synthetic)
[11] = system: VOP 32B-7 (synthetic)
[12] = system: HUM 19A (synthetic)
[13] = system: MTS 5A (synthetic)

In the case of “ATGGACGGG (double strand) [BVO 13A / MX1E target]”, the Kd [1] is reported as < 0.02 nM and the Kd [2] is reported as 3.4 nM.
“GAGGCTTGG (double strand) [VOP 29A-3 target]” was tested, and the Kd [3] was < 0.02 nM.
“GCCGGGGAG (double strand) [USX 3A target]” gave a Kd [4] of 0.06 nM.
In the case of “GCTGGAGCA (double strand) [VOP 35A-10 target]”, the Kd [5] is reported as < 0.02 nM.
With “GCTGGGGGC (double strand) [VOP 30A-4 target]” the Kd [6] was < 0.02 nM.
“GGDTGGGGG (double strand) [HP38 4A target]” was tested, and the Kd [7] was 0.75 nM.
“GGGGAGGAT (double strand) [VEGF 1B target]” showed a Kd [8] of 2 nM.
For “GGGGGCGCT (double strand) [VOP 28A-2 target]”, the Kd [9] was < 0.02 nM.
For “GGGGGTGAC (double strand) [VOP 32 target]”, the Kd [10] was < 0.02 nM and the Kd [11] was < 0.02 nM.
“TGGGCAGAC (double strand) [HUM 19A target]” showed a Kd [12] of 0.02 nM.
“TGGGGGTGG (double strand) [MTS 5A target]” showed a Kd [13] of 0.07 nM.

— patent publication US20050267061
